T1: myoglobin (UniProt P02144 2-154)
T1 sequence: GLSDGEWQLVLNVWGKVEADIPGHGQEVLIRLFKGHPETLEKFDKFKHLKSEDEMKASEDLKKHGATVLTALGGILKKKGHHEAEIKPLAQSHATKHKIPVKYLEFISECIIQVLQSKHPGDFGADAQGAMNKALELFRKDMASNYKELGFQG


Each binder was assayed against T1, myoglobin (assay: aptamer blotting).

| Binder | binding result |
| --- | --- |
| TTTTTTTTTTTTTTTTT (ssDNA) [T17] | binds |

What follows are binders tested against T1, myoglobin (assay: absorption spectroscopy).

| Binder | binding result |
| --- | --- |
| GGGTGGGTTTTCTTTGGGTTGGGC (structured_DNA) [N24-07 core] | binds |

Target: T1, myoglobin
Experiment: aptamer blotting
Remark: another data set of the same source

| Binder | binding result |
| --- | --- |
| N24-01 (structured_DNA) DNA: ACTAGAACTGATCTACAATTTAGGCCGGGTGTTGGGTGGGTAGGGTTTTCTACATCTCAGCATTCT | binds |
| N24-03 (structured_DNA) DNA: ACTAGAACTGATCTACAATTTGGGTTGGGGGGGTTTTGGGTTTTTTTTTCTACATCTCAGCATTCT | binds |
| N24-06 (structured_DNA) DNA: ACTAGAACTGATCTACAATTTGGGGGGGTTTTGGGGGGGTTGTTGTTTTCTACATCTCAGCATTCT | binds |
| N24-07 (with primer sites) (structured_DNA) DNA: ACTAGAACTGATCTACAATTTGGGTGGGTTTTCTTTGGGTTGGGCTTTTCTACATCTCAGCATTCT | binds |
| N24-04 (structured_DNA) DNA: ACTAGAACTGATCTACAATTTGGGGGGGTTTTCTGGGGGGGTTTTTTTTCTACATCTCAGCATTCT | binds |

What follows are binders tested against T1, myoglobin (assay: SPR).

| Binder | Kd [nM] |
| --- | --- |
| GGGCGGGTTGGGCTGGG (structured_DNA) [PEA3-01] | 5.8 |

Target: T1, myoglobin
Experiment: aptamer blotting
Remark: another data set of the same source

| Binder | binding result |
| --- | --- |
| GGGCCGGGAGGGTGCAGGG (structured_DNA) [Annexin II-PQS] | binds |
| GGGATAGGGTTGGGCACTCACAGCTGAATGGG (structured_DNA) [PSA-PQS2] | binds |
| GGGTGGGGGTGGGTTTCTTGGGGTGTAAAGTGGG (structured_DNA) [HER2-PQS3] | binds |
| GGGAAGGAGGGAGGAAGGGAGGGAGGG (structured_DNA) [aFGF-PQS20] | binds |

Target: T1, myoglobin
Experiment: aptamer blotting
Remark: another data set of the same source

| Binder | binding result |
| --- | --- |
| GGGCCGGGTTGGGTGTAGAGTGGG (structured_DNA) [PEA1-02] | binds |
| GGGTGGGAAGGGTTGGG (structured_DNA) [PEA1-06] | binds |
| GGGTGGGTTGGGAGGG (structured_DNA) [PEA1-20] | binds |
| GGGAAGGGTTGGGAGGG (structured_DNA) [PEA1-16] | binds |
| GGGCCGGGAGGGAGGG (structured_DNA) [PEA1-19] | binds |
| GGGTGGGTTTCTTGGGAGGG (structured_DNA) [PEA1-11] | binds |
| GGGTGGGAGGGAGGG (structured_DNA) [PEA1-13] | binds |
